Measurements from PMC7026407, “Multiple Growth Factor Targeting by Engineered Insulin-like Growth Factor Binding Protein-3 Augments EGF Receptor Tyrosine Kinase Inhibitor Efficacy” (Scientific Reports, 2020).

B2: PDGF BB (ligand, UniProt P01127 82-190, looked up)
chain: SLGSLTIAEPAMIAECKTRTEVFEISRRLIDRTNANFLVWPPCVEVQRCSGCCNNRNVQCRPTQVQLRPVQVRKIEIVRKKPIFKKATVTLEDHLACKCETVAAARPVT
notes: platelet-derived growth factor B chain
B5: VEGF-B (ligand, UniProt P49765 22-207, looked up)
chain: PVSQPDAPGHQRKVVSWIDVYTRATCQPREVVVPLTVELMGTVAKQLVPSCVTVQRCGGCCPDDGLECVPTGQHQVRMQILMIRYPSSQLGEMSLEEHSQCECRPKKKDSAVKPDRAATPHHRPQPRSVPGWDSAPGAPSPADITHPTPAPGPSAHAAPSTTSALTPGPAAAAADAAASSVAKGGA
notes: vascular endothelial growth factor B

Key:
Details in all cases: both partners purified
56662 [1] = molecular target: T1, 56662 (UniProt P17936-1 28-291); test: SPR; IGF binding protein or Fc fusion amine-coupled to a CM4 chip, growth factor as analyte; Biacore T100 or T200, HBS-P, BSA (0.2 mg/ml) or NaCl (0.65 M final) to reduce non-specific binding, 25 °C; 1:1 binding analysis
T1 construct: the secretory signal peptide was derived from IGFBP-2; Fc portion of IgG1 added to the C terminus of IGFBP-3; called an Fc dimer; Probably the mature IGFBP-3 after removal of the IGFBP-2 signal peptide; also called IGFBP-3-Fc; BP3-Fc (unmodified IGFBP-3 Fc construct); source: 293 T cells, transfected; conditioned medium purified by proteinA Sepharose; not shown: Fc (IgG1), C-terminal, kept

56662 [2] = molecular target: T1, 56662; test: SPR; growth factor immobilised on a CM4 chip instead of the binding protein (asterisk in Table 1), binding protein or Fc fusion as analyte; HBS-P, 25 °C; regeneration with 4 M MgCl2 then 5 M guanidinium chloride; 1:1 binding analysis
56662 [3] = molecular target: T2, 56662 (UniProt P17936-1 28-291); test: SPR; growth factor amine-coupled to a CM4 chip, Fc fusion as analyte (values marked * in Table 1); Biacore T100/T200; HBS-P, with 0.2 mg/ml BSA or 0.65 M NaCl to reduce non-specific binding; 25 °C; 1:1 binding fit
T2 construct: Fc dimer; also called BP3-Fc; IGFBP-3-Fc; source: 293T cells, transfected, conditioned medium, purified (protein A Sepharose); not shown: Fc (IgG1), C-terminal, kept

Chimera A = molecular target: T3, Chimera A; test: as above
T3 construct: VEGF receptor 1 domain 2, first part of VEGF-trap; VEGF receptor 2 domain 3, second part of VEGF-trap; VEGF-trap inserted between the IGFBP-3 and the Fc domain; Fc dimer; also called chA; BP3-VEGF-trap-Fc; source: 293T cells, transfected, conditioned medium, purified (protein A Sepharose); not shown: Fc (IgG1), C-terminal, kept
T3 sequence (Q02297 20-241, stated change not applied): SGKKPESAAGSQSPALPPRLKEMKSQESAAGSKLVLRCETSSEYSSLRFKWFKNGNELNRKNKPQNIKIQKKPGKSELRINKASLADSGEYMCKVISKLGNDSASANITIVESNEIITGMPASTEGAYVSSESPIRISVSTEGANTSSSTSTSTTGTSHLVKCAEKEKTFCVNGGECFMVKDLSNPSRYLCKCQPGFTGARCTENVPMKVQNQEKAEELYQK

IGFBP-3 = IGFBP-3 (UniProt P17936 28-291); test: SPR; IGF binding protein or Fc fusion amine-coupled to a CM4 chip, growth factor as analyte; Biacore T100/T200; HBS-P, with 0.2 mg/ml BSA or 0.65 M NaCl to reduce non-specific binding; 25 °C; 1:1 binding fit
IGFBP-7 = molecular target: T4, IGFBP-7 (UniProt Q16270 27-282); test: as above
T4 sequence (looked up): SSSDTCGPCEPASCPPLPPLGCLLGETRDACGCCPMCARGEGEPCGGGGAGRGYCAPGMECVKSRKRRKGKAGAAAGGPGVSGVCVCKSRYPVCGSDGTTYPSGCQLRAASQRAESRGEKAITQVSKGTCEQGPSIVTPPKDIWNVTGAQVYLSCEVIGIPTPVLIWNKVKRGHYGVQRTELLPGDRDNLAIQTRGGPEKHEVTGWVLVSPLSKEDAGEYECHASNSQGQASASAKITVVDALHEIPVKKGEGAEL

hepatocyte growth factor [4] = molecular target: T5, hepatocyte growth factor (UniProt P14210 32-728); test: SPR; IGF binding protein or Fc fusion amine-coupled to a CM4 chip, growth factor as analyte; Biacore T100 or T200, HBS-P, BSA (0.2 mg/ml) or NaCl (0.65 M final) to reduce non-specific binding, 25 °C; 1:1 binding analysis
T5 construct: hepatocyte growth factor, commercial; Mature HGF is a two-chain (alpha/beta) product of one precursor; the preparation is said to hold both processed and unprocessed forms; also called HGF; source: expressed in insect cells
T5 sequence (P14210 32-728): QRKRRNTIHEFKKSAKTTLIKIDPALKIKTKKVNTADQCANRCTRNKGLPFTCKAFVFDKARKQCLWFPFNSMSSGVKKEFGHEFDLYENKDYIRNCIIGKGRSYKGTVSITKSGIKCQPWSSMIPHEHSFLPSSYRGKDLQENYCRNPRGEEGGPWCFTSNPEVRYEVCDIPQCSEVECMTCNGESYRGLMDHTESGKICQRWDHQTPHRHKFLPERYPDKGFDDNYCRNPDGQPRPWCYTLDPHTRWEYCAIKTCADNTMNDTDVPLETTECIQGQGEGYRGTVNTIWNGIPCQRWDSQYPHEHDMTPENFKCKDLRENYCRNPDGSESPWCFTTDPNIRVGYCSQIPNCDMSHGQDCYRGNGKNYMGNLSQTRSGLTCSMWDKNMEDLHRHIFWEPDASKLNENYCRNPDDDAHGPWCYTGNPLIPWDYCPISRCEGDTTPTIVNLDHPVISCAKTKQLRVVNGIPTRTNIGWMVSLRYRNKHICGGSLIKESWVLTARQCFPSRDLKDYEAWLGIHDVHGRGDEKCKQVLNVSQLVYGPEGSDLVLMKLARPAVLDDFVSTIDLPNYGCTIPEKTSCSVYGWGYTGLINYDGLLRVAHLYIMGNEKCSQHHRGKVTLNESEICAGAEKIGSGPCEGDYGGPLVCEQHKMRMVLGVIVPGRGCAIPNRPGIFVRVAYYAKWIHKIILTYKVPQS

IGFBP-2 = molecular target: T6, IGFBP-2 (UniProt P18065 36-325); test: SPR; IGF binding protein or Fc fusion amine-coupled to a CM4 chip, growth factor as analyte; Biacore T100/T200; HBS-P, with 0.2 mg/ml BSA or 0.65 M NaCl to reduce non-specific binding; 25 °C; 1:1 binding fit
T6 sequence (looked up): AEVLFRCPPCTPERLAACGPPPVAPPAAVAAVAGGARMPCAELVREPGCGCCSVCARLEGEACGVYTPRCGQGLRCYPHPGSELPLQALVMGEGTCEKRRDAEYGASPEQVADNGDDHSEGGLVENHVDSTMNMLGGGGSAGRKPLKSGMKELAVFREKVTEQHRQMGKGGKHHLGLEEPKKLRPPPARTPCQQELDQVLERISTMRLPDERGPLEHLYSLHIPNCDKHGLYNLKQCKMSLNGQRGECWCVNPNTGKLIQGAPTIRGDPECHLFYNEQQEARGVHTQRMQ

56662 [5] = molecular target: T2, 56662; test: as above
hepatocyte growth factor [6] = molecular target: T7, hepatocyte growth factor (UniProt P14210 32-728); test: SPR; growth factor amine-coupled to a CM4 chip, Fc fusion as analyte (values marked * in Table 1); Biacore T100/T200; HBS-P, with 0.2 mg/ml BSA or 0.65 M NaCl to reduce non-specific binding; 25 °C; 1:1 binding fit
T7 construct: hepatocyte growth factor; also called HGF; source: bought
T7 sequence (P14210 32-728): as the sequence (P14210 32-728) above

neuregulin-1 = neuregulin-1 (UniProt Q02297 20-241); test: as above
Chain of neuregulin-1 (Q02297 20-241): as the sequence (Q02297 20-241, stated change not applied) above

PDGF BB = molecular target: B2; test: as above
VEGF-B = molecular target: B5; test: as above
bFGF = molecular target: T8, bFGF (UniProt P09038 143-288); test: as above
T8 construct: basic fibroblast growth factor; also called basic FGF
T8 sequence (P09038 143-288): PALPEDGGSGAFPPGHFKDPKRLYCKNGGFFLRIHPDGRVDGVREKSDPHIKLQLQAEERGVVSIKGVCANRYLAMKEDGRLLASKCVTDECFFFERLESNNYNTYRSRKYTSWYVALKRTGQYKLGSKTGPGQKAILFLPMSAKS

[7] = molecular target: T9, insulin-like growth factor-2 (UniProt P01344 25-91); test: SPR; IGF binding protein or Fc fusion amine-coupled to a CM4 chip, growth factor as analyte; Biacore T100/T200; HBS-P, with 0.2 mg/ml BSA or 0.65 M NaCl to reduce non-specific binding; 25 °C; 1:1 binding fit
T9 construct: insulin-like growth factor 2; also called IGF2; IGF-2
T9 sequence (P01344 25-91): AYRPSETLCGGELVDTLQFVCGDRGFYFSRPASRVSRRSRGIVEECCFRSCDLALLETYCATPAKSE

[8] = molecular target: T10, insulin-like growth factor-1 (UniProt P05019 49-118); test: as above
T10 construct: insulin-like growth factor 1; also called IGF1; IGF-1
T10 sequence (P05019 49-118): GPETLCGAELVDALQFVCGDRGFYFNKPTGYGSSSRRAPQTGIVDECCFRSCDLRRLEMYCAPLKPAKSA

B1: PDGF BB (ligand, UniProt P01127 82-190, looked up)
chain: SLGSLTIAEPAMIAECKTRTEVFEISRRLIDRTNANFLVWPPCVEVQRCSGCCNNRNVQCRPTQVQLRPVQVRKIEIVRKKPIFKKATVTLEDHLACKCETVAAARPVT
notes: platelet-derived growth factor B chain; Homodimer of B chains by its name
For B1, the Kd 56662 [1] was 0.52 nM and the Kd 56662 [2] was 4.19 nM.

B2 was tested, and the koff 56662 [3] was 0.000562 s⁻¹ and the kon 56662 [3] was 259000 M⁻¹ s⁻¹.

B3: neuregulin-1 (ligand)
chain: SERKEGRGKGKGKKKERGSGKKPESAAGSQSPALPPRLKEMKSQESAAGSKLVLRCETSSEYSSLRFKWFKNGNELNRKNKPQNIKIQKKPGKSELRINKASLADSGEYMCKVISKLGNDSASANITIVESNEIITGMPASTEGAYVSSESPIRISVSTEGANTSSSTSTSTTGTSHLVKCAEKEKTFCVNGGECFMVKDLSNPSRYLCKCPNEFTGDRCQNYVMASFYKHLGIEFMEAEELYQK
modifications: R&D 377-HB, neuregulin extracellular domain, taken as NRG1-beta1 Ser2-Lys246; the paper prints only the catalogue number and 'extracellular domain'.
Work on B3 yielded a koff (Chimera A) of 0.000291 s⁻¹, a kon (Chimera A) of 394000 M⁻¹ s⁻¹ and a koff 56662 [3] of 0.00443 s⁻¹. The kon 56662 [3] was 481000 M⁻¹ s⁻¹, the koff (IGFBP-3) was 0.000883 s⁻¹ and the kon (IGFBP-3) was 425000 M⁻¹ s⁻¹. For the same binder, the koff (IGFBP-7) was 0.00129 s⁻¹ and the kon (IGFBP-7) was 800 M⁻¹ s⁻¹.

B4: IGFBP-7 (natural protein, UniProt Q16270 27-282, looked up)
chain: SSSDTCGPCEPASCPPLPPLGCLLGETRDACGCCPMCARGEGEPCGGGGAGRGYCAPGMECVKSRKRRKGKAGAAAGGPGVSGVCVCKSRYPVCGSDGTTYPSGCQLRAASQRAESRGEKAITQVSKGTCEQGPSIVTPPKDIWNVTGAQVYLSCEVIGIPTPVLIWNKVKRGHYGVQRTELLPGDRDNLAIQTRGGPEKHEVTGWVLVSPLSKEDAGEYECHASNSQGQASASAKITVVDALHEIPVKKGEGAEL
notes: source: bought (commercially available, carrier-free)
B4: binds (hepatocyte growth factor [4]).

With B5 the koff (IGFBP-2) was 0.000441 s⁻¹, the kon (IGFBP-2) was 157000 M⁻¹ s⁻¹ and the koff (IGFBP-3) was 0.000751 s⁻¹. The kon (IGFBP-3) was 96600 M⁻¹ s⁻¹, the koff 56662 [5] was 0.000284 s⁻¹ and the kon 56662 [5] was 45000 M⁻¹ s⁻¹. It also gave a koff (IGFBP-7) of 0.00277 s⁻¹ and a kon (IGFBP-7) of 875000 M⁻¹ s⁻¹.

B6: D3 (Fc fusion)
chain: GASSAGLGPVVRCEPCDARALAQCAPPPAVCAELVREPGCGCCLTCALSEGQPCGIYTERCGSGLRCQPSPDEARPLQALLDGRGLCVNASAVSRPAPPAPGNASESEEDRSAGSVESPSVSSTHRVSDPKFHPKGHAKVDYESQSTDTQNFSSESKRETEYGPCRREMEDTLNHLKFLNVLSPRGVHIPNCDKKGFYKKKQCRPSKGRKRGFCWCVDKYGQPLPGYTTKGKEDVHCYSMQSK
modifications: Secreted Fc-fusion dimer; Fc omitted. Deletions 121-126, 166-174 and 180-185 are in 56662 precursor numbering (UniProt = construct + 2; the offset agrees with the H3t33-type deletion printed in …)
In the case of B6, the koff (hepatocyte growth factor [6]) is reported as 0.000291 s⁻¹, the kon (hepatocyte growth factor [6]) is reported as 110000 M⁻¹ s⁻¹ and the koff (neuregulin-1) is reported as 0.00053 s⁻¹. It also gave a kon (neuregulin-1) of 270000 M⁻¹ s⁻¹, a koff (PDGF BB) of 0.00175 s⁻¹ and a kon (PDGF BB) of 550000 M⁻¹ s⁻¹. For the same binder, the koff (VEGF-B) was 0.000445 s⁻¹, the kon (VEGF-B) was 25000 M⁻¹ s⁻¹ and the koff (bFGF) was 0.000529 s⁻¹. For the same binder, the kon (bFGF) was 161000 M⁻¹ s⁻¹, the koff [7] was 0.00185 s⁻¹ and the kon [7] was 8.25e+06 M⁻¹ s⁻¹. The koff [8] was 8.36e-05 s⁻¹ and the kon [8] was 163000 M⁻¹ s⁻¹.
